Experiment [1] addresses HCV E1E2 glycoproteins of isolate 5.15.11 on HCVpp (Hepatitis C virus genotype 5). The experiment in a line: cell-based or functional assay.
Experiment [2] deals with HCV E1E2 glycoproteins of isolate 1B5.23 on HCVpp (Hepatitis C virus genotype 1). The experiment in a line: cell-based or functional assay.
Experiment [3] concerns the target HCV E1E2 glycoproteins of isolate 4.21.16 on HCVpp (Hepatitis C virus genotype 4). The experiment in a line: cell-based or functional assay.
Experiment [4] has as its target HCV E1E2 glycoproteins of isolate 2B1.1 on HCVpp (Hepatitis C virus genotype 2). Kind of experiment: cell-based or functional assay.
Experiment [5] addresses HCV E1E2 glycoproteins of genotype 3a F4/2-35 on HCVpp (Hepatitis C virus genotype 3a). Kind of experiment: cell-based or functional assay.
For experiment [6], the target named is HCV E1E2 glycoproteins of genotype 2a JFH1 on HCVpp (Hepatitis C virus genotype 2a, UniProt Q99IB8 384-750; Q99IB8 192-383). Kind of experiment: cell-based or functional assay.
Chain of HCV E1E2 glycoproteins of genotype 2a JFH1 on HCVpp (Q99IB8 384-750 limits assumed, chain 1 of 2): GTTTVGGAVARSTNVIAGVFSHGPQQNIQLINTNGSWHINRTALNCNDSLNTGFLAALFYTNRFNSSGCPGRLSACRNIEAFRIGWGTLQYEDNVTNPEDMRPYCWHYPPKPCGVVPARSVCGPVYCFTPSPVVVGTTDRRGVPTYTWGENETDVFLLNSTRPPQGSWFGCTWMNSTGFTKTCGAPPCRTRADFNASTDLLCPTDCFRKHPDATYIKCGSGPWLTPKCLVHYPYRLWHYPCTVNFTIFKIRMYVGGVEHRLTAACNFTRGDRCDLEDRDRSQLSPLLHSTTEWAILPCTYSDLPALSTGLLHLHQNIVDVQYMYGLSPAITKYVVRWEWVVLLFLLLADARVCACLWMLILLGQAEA
Chain of HCV E1E2 glycoproteins of genotype 2a JFH1 on HCVpp (Q99IB8 192-383 limits assumed, chain 2 of 2): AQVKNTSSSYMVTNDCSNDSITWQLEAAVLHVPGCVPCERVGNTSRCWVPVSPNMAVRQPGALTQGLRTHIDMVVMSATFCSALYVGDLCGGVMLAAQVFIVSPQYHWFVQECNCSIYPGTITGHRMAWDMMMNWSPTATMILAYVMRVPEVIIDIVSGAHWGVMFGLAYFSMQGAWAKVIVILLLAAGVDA
Experiment [7] deals with HCV E1E2 glycoproteins of isolate 2A2.4 on HCVpp (Hepatitis C virus genotype 2). The experiment in a line: cell-based or functional assay.
Experiment [8] has as its target HCV E1E2 glycoproteins of isolate 1A20.8 on HCVpp (Hepatitis C virus genotype 1). The experiment in a line: cell-based or functional assay.
Experiment [9] addresses HCV E1E2 glycoproteins of isolate 6.5.8 on HCVpp (Hepatitis C virus genotype 6). The experiment in a line: cell-based or functional assay.
Experiment [10] has as its target T1, Peptide D3 (also: C-terminal linker GSGK-biotin, biotin attachment not given here).
T1 peptide: QLINTNGSWHINGSGK
Kind of experiment: peptide ELISA, signal as percent of maximum H6 binding. On the technique in general: An ELISA detects its analyte on a solid surface through an enzyme-linked reagent.

Experiment [11] deals with T2, E2 peptide B1 (not fully specified (residue 16, C-terminus); also: biotin at C-terminal GSGK, site not given here).
T2 peptide: NLINTNGSWHINGSGK
The description is as above.

The target in experiment [12] is T3, peptide H6 (AP33 mimotope) (not fully specified (residue 16, C-terminus); printed as VELRNLGGTWRPGSGK-biotin; also: biotin at C-terminal GSGK, site not given here).
T3 construct: Mimotope for AP33 identified by phage display; captured on streptavidin plates; also called mimotope H6; H6 mimotope
T3 peptide: VELRNLGGTWRPGSGK
Kind of experiment: peptide ELISA, biotinylated peptide on streptavidin, COS7 supernatant, OD 655 nm.

Experiment [13] deals with T1, Peptide D3. The description is as above.
The target of experiment [14] is T3, peptide H6 (AP33 mimotope). The description is as above.
Experiment [15] concerns the target T3, peptide H6 (AP33 mimotope). The description is as above.
Experiment [16] has as its target T1, Peptide D3. The description is as above.
The target of experiment [17] is T2, E2 peptide B1. Described as above.
Experiment [18] deals with T3, peptide H6 (AP33 mimotope). The experiment is described as above.
In experiment [19] the target is T2, E2 peptide B1. The description is as above.
For experiment [20], the target named is T3, peptide H6 (AP33 mimotope). Described as above.
For experiment [21], the target named is T1, Peptide D3. Described as above.
In experiment [22] the target is T2, E2 peptide B1. The description is as above.
The target of experiment [23] is T3, peptide H6 (AP33 mimotope). The description is as above.
In experiment [24] the target is T1, Peptide D3. Described as above.
For experiment [25], the target named is T2, E2 peptide B1. The description is as above.
Experiment [26] concerns the target T2, E2 peptide B1. The description is as above.

Where two headings read alike, the source gives them in different places. Where no end group is shown, it is not given here.

A word on the EC50 (read off the curve): it is the midpoint of the concentration-response curve. Lower therefore signals greater potency.

B1: chimeric AP33 antibody (Vh/Vl) (antibody, V domains shown)
VH: EVQLQESGPSLVKPSQTLSLTCSVTGDSITSGYWNWIRKFPGNKLEYMGYISYSGSTYYNLSLRSRISITRDTSKNQYYLQLNSVTTEDTATYYCALITTTTYAMDYWGQGTSVTVS
VL: NIVLTQSPVSLAVSLGQRATISCRASESVDGYGNSFLHWFQQKPGQPPKLLIYLASNLNSGVPARFSGSGSRTDFTLTIDPVEADDAATYYCQQNNVDPWTFGGGTKLEIK
notes: also called chimeric antibody
As to B1, the “IC50 of HCVpp infection of Huh-7 cells (luciferase)” value was 0.088 µg/mL in experiment [1]; 1.15 µg/mL in experiment [2]; less than 0.137 µg/mL in experiment [3]; 3 µg/mL in [4]; 0.48 µg/mL in experiment [5]; 1.1 µg/mL in experiment [6]. Further, the “IC50 of HCVpp infection of Huh-7 cells (luciferase)” value is 0.88 µg/mL in experiment [7], 1.1 µg/mL in experiment [8] and less than 0.137 µg/mL in experiment [9]. Further, the “IC90 of HCVpp infection of Huh-7 cells (luciferase)” value is 1.11 µg/mL in experiment [1]; 11 µg/mL in experiment [2]; 0.83 µg/mL in experiment [3]; greater than 15 µg/mL in experiment [4]; 3.2 µg/mL in experiment [5]; 9.31 µg/mL in experiment [6]. The “IC90 of HCVpp infection of Huh-7 cells (luciferase)” value turned out to be 6.67 µg/mL in experiment [7], 11.5 µg/mL in experiment [8] and 3.7 µg/mL in experiment [9]. Besides, the 50% effective concentration (EC50 (read off the curve)) with Peptide D3 [10] was roughly 0.02 µg/mL.

B2: humanized AP33 antibody RHb-h/RK2bc (antibody, V domains shown)
VH: QVQLQESGPGLVKPSETLSLTCTVSGDSITSGYWNWIRQPPGRALEYMGYISYSGSTYYNLSLRSRITISRDTSKNQYSLRLSSVTAADTAMYYCALITTTTYAMDYWGQGTTVTVS
VL: EIVLTQSPSSLSASVGDRVTITCRASESVDGYGNSFLHWFQQKPGKAPKLLIYLASNLNSGVPSRFSGSGSRTDFTLTISSLQPEDFATYYCQQNNVDPWTFGQGTKLEIK
notes: also called RHbcdefgh/RK2bc; RHb-h standard
Take B2: the binding result in the experiment with E2 peptide B1 [11] was “no binding (tested: at least about 500 ng/ml)”. Also, the results for the “EC50 (read off the curve)” value (in experiment [12]; with Peptide D3 [13]; in experiment [14]) were roughly 0.04 µg/mL, roughly 0.05 µg/mL and roughly 0.04 µg/mL, respectively.

B3: humanized AP33 antibody RH-C/RK2bc (antibody, V domains shown)
VH: QVQLQESGPGLVKPSETLSLTCTVSGDSITSGYWNWIRQPPGRALEWMGYISYSGSTYYNLSLRSRITISRDTSKNQYSLRLSSVTAADTAMYYCALITTTTYAMDYWGQGTTVTVSS
VL: EIVLTQSPSSLSASVGDRVTITCRASESVDGYGNSFLHWFQQKPGKAPKLLIYLASNLNSGVPSRFSGSGSRTDFTLTISSLQPEDFATYYCQQNNVDPWTFGQGTKLEIK
notes: also called RH-C (peptide ELISA, paired with RK2bc)
On to B3, for which the entries for the “EC50 (read off the curve)” value (in experiment [15]; in the experiment with Peptide D3 [16]) were roughly 0.04 µg/mL and roughly 0.05 µg/mL, respectively. For the same molecule, the binding result with E2 peptide B1 [17] was “no binding (tested: about 2000 ng/ml)”.

B4: humanized AP33 antibody RH-G/RK2bc (antibody, V domains shown)
VH: QVQLQESGPGLVKPSETLSLTCTVSGDSITSGYWNWIRQPPGRALEYMGYISYSGSTYYNLSLRSRITISRDTSKNQFSLRLSSVTAADTAMYYCALITTTTYAMDYWGQGTTVTVS
VL: EIVLTQSPSSLSASVGDRVTITCRASESVDGYGNSFLHWFQQKPGKAPKLLIYLASNLNSGVPSRFSGSGSRTDFTLTISSLQPEDFATYYCQQNNVDPWTFGQGTKLEIK
For the molecule B4, the “EC50 (read off the curve)” value in experiment [18] was roughly 0.03 µg/mL. For the same molecule, in the experiment with E2 peptide B1 [19], the binding result is given as “no binding (tested: about 700 ng/ml)”.

B5: humanized AP33 antibody RH-H/RK2bc (antibody, V domains shown)
VH: QVQLQESGPGLVKPSETLSLTCTVSGDSITSGYWNWIRQPPGRALEYMGYISYSGSTYYNLSLRSRITISRDTSKNQYSLRLSSVTAADTAMYYCARITTTTYAMDYWGQGTTVTVS
VL: EIVLTQSPSSLSASVGDRVTITCRASESVDGYGNSFLHWFQQKPGKAPKLLIYLASNLNSGVPSRFSGSGSRTDFTLTISSLQPEDFATYYCQQNNVDPWTFGQGTKLEIK
notes: also called RH-H (peptide ELISA, paired with RK2bc)
For B5, the binding result with E2 peptide B1 [11] is “no binding (tested: at least about 500 ng/ml)”. The “EC50 (read off the curve)” value in [20] is roughly 0.03 µg/mL; in the experiment with Peptide D3 [21], roughly 0.04 µg/mL.

B6: AP33 RH-E/RK2bc (antibody, V domains shown)
VH: QVQLQESGPGLVKPSETLSLTCTVSGDSITSGYWNWIRQPPGRALEYMGYISYSGSTYYNLSLRSRVTISRDTSKNQYSLRLSSVTAADTAMYYCALITTTTYAMDYWGQGTTVTVS
VL: EIVLTQSPSSLSASVGDRVTITCRASESVDGYGNSFLHWFQQKPGKAPKLLIYLASNLNSGVPSRFSGSGSRTDFTLTISSLQPEDFATYYCQQNNVDPWTFGQGTKLEIK
With B6, the binding result with E2 peptide B1 [22] is listed as “no binding (tested: about 800 ng/ml)”.

B7: AP33 RH-D/RK2bc (antibody, V domains shown)
VH: QVQLQESGPGLVKPSETLSLTCTVSGDSITSGYWNWIRQPPGRALEYIGYISYSGSTYYNLSLRSRITISRDTSKNQYSLRLSSVTAADTAMYYCALITTTTYAMDYWGQGTTVTVS
VL: EIVLTQSPSSLSASVGDRVTITCRASESVDGYGNSFLHWFQQKPGKAPKLLIYLASNLNSGVPSRFSGSGSRTDFTLTISSLQPEDFATYYCQQNNVDPWTFGQGTKLEIK
Consider B7, for which the “EC50 (read off the curve)” value (in [23]; in the experiment with Peptide D3 [24]) was roughly 0.04 µg/mL in each case. In addition, in the experiment with E2 peptide B1 [25], the binding result is listed as “no binding (tested: about 900 ng/ml)”.

B8: humanized AP33 antibody RH-F/RK2bc (antibody, V domains shown)
VH: QVQLQESGPGLVKPSETLSLTCTVSGDSITSGYWNWIRQPPGRALEYMGYISYSGSTYYNLSLRSRITISVDTSKNQYSLRLSSVTAADTAMYYCALITTTTYAMDYWGQGTTVTVS
VL: EIVLTQSPSSLSASVGDRVTITCRASESVDGYGNSFLHWFQQKPGKAPKLLIYLASNLNSGVPSRFSGSGSRTDFTLTISSLQPEDFATYYCQQNNVDPWTFGQGTKLEIK
Take B8: in the experiment with E2 peptide B1 [26], the binding result is reported as “no binding (tested: about 500 ng/ml)”.

The values above are taken from patent publication US20110002926A1 (MEDICAL RESEARCH COUNCIL, published 2011).
